This note sets out measurements from publication PMC3659094.

This test has as its target human Tyrosine kinase receptor B (TrkB) (human) (UniProt Q16620).
UniProt Q16620, sequence (Q16620 other isoform, or with tags, fused parts or gaps): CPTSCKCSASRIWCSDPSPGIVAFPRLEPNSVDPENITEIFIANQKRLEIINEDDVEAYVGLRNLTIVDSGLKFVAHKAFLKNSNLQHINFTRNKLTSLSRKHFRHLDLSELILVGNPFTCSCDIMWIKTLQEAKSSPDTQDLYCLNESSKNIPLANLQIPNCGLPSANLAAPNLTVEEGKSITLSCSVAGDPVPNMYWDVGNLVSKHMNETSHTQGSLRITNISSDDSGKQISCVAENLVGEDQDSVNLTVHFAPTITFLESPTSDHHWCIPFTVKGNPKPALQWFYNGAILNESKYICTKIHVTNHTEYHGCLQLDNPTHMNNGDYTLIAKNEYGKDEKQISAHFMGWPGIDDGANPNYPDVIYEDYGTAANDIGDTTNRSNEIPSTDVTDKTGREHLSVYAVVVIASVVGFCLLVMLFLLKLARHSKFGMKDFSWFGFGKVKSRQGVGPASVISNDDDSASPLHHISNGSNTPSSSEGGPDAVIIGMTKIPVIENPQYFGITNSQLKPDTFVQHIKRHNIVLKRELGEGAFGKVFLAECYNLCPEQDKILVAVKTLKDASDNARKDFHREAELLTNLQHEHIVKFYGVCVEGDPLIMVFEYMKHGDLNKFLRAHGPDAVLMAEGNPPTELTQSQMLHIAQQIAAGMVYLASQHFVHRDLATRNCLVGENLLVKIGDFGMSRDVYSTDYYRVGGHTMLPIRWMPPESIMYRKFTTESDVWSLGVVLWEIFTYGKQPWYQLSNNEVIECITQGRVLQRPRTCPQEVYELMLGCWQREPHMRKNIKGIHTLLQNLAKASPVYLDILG

“brain-derived neurotrophic factor (BDNF) (ligand)” gave an EC50 of recruitment of SHC1 to human TrkB in U2OS cells (Pathhunter) of 1 nM and an EC50 of transcriptional activation of a CRE-luciferase reporter in HEK293 cells expressing human TrkB of 5.2 nM.
